Test results: US20210221879A1

What was measured:
[1] = target: BSA cross-linked with A-peak (A-peak-BSA) (bovine) (UniProt P02769); assay: SPR, Biacore T200; A-peak-BSA amine-coupled to a CM5 chip (72 RU), PB-1 at 0.1953 to 50 nM, 1:1 binding model
[2] = target: BSA cross-linked with A-peak (A-peak-BSA) (bovine) (UniProt P02769); assay: cross-competition ELISA: unlabeled antibody varied (0.049 to 50 µg/mL), HRP-labeled SJ-5 as competitor on immobilised A-peak-BSA, absorbance 450-650 nm
[3] = target: Bovine serum albumin containing AGEs derived from glyceraldehyde (Glycer-AGEs-BSA) (bovine) (UniProt P02769); assay: SPR, Biacore T200; Glycer-AGEs-BSA amine-coupled to a CM5 chip, antibody at 0 to 400 nM
[4] = target: BSA modified with the novel structure derived from Glycer-AGEs (GAL13-BSA) (bovine) (UniProt P02769); assay: SPR, Biacore T200; GAL13-BSA amine-coupled to a CM5 chip
[5] = target: BSA modified with the novel structure derived from Glycer-AGEs (GAL13-BSA) (bovine) (UniProt P02769); assay: direct ELISA: POD-labeled antibody on immobilised GAL13-BSA (1 µg/mL), absorbance at 490 nm

Kd [1] [nM] | IC50 (read off the curve) [2] [µg/mL] | Kd [3] [nM] | Kd [4] [nM] | EC50 (read off the curve) [5] [µg/mL] | Binder
4.15 | 2 | – | – | – | novel monoclonal antibody PB-1 (antibody, V domains shown) VH: EVRLQQSGPELVKPGTSVKISCKASGYSFTGYYMHWVKQSPVKSLEWIGRIIPYNGATSYNQNFKDKASLTVDKSSRTAYMDLHSLTSEDSAVYYCARSRYYGRAPYYFDYWGQGTTLTVSS VL: DVVVTQTPLSLPVSLGDQASISCRSSQSIVHSNGNTYLEWYLQKPGQSPKLLIYKVSNRFSGVPDRISGSGSGTDFTLKISRVEAGDLGVYSCFQGSHVPFTFGSGTKLEIK
– | – | 57.4 | 87.5 | 0.3 | novel monoclonal antibody SJ-5 (antibody, V domains shown) VH: EVMLVESGGRLVKPGGSLKLSCAASGFTFSSYGMSWVRQTPEKRLEWVATISGGGSYTYYPDSVKGRFTISRDNVKNNLYLQMSSLRSEDTALYYCARRGAYGDYGWFAYWGQGTLVTVSA VL: DIVLTQSPATLSVTPGDSVSLSCRASQSINNNLHWYQQKSHESPRLLIKCASQSISGIPSRFSGSGSGTDFTLSINSVETEDFGMYFCQQSNSWPLTFGAGTKLELK
